This is an account of results in patent publication US20220372147A1 (UNIVERSIT T STUTTGART, published 2022).

Where two headings read alike, the source gives them in different places.

In experiment [1] the target is T1, FcεRI Fc fusion protein comprising the extracellular region of FcεRI (human, UniProt P12319 26-205).
T1 construct: extracellular domain; also called FcεRT; FccRT; not shown: Fc part
T1 sequence (looked up): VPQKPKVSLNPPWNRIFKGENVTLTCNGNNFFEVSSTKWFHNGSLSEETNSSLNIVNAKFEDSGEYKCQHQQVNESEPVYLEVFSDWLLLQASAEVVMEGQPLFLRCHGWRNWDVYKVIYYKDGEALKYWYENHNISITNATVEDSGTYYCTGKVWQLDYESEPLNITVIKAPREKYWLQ
The experiment is described as follows: ELISA, immobilized FcεRI-Fc, anti-human Fab detection.

The target of experiment [2] is T2, His-tagged HER3 protein, extracellular domain (ECD) of HER3 (aa 21-643) (UniProt P21860 21-643).
T2 construct: range 21-643; also called HER3-His; not shown: His-tag
The experiment is described as follows: ELISA, immobilized HER3-His, anti-human Fc-HRP detection. For orientation: An ELISA detects its analyte on a solid surface through an enzyme-linked reagent.

For a further experiment, the target named is T3, EGFR-Fc (UniProt P00533 25-645).
T3 construct: also called immobilized EGFR-Fc antigen; not shown: Fc part
The experiment is described as follows: bifunctional sandwich ELISA: immobilized EGFR-Fc, titrated eIg-Fab, then HER3-His as second antigen detected with anti-His-HRP.

Experiment [3] deals with T4, HER3 on HER3-expressing cancer cells (LIM1215, BT474) (UniProt P21860 20-1342, limits assumed). Put plainly: cell-based or functional assay.
The target in experiment [4] is T4, HER3 on HER3-expressing cancer cells …. The experiment is described as follows: cell-based or functional assay. The source holds these as a separate data set.
In experiment [5] the target is T5, CD3 on CD3-expressing Jurkat cells (human, UniProt P07766 23-207).
T5 construct: whole, on cells
T5 sequence (P07766 23-207): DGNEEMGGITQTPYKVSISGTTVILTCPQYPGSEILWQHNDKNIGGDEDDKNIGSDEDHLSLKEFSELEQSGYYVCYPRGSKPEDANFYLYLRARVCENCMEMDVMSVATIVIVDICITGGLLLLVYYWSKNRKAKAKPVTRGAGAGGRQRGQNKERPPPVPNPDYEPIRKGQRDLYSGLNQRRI
Put plainly: flow cytometry on CD3-expressing Jurkat cells, PE anti-human Fc. On the technique in general: Flow cytometry measures light scatter and fluorescence of single cells or particles in a stream.

Experiment [6] has as its target T4, HER3 on HER3-expressing cancer cells …. Put plainly: flow cytometry on HER3-expressing BT474 cells, PE anti-human Fc.
Experiment [7] shares this target. Put plainly: flow cytometry on HER3-expressing LIM1215 cells, PE anti-human Fc.
Experiment [8] deals with T6, Flag-tagged FAP protein, extracellular domain of FAP (aa 32-728) (UniProt Q12884 32-728).
T6 construct: range 32-728; also called FAP-Flag; not shown: Flag-tag
The experiment is described as follows: ELISA, immobilized FAP-Flag, anti-human Fc-HRP detection.

The target of experiment [9] is T2, His-tagged HER3 protein, extracellular …. The experiment is described as follows: ELISA, immobilized HER3-His, anti-human Fc-HRP detection. This is another data set of the same source.
For experiment [10], the target named is T7, FAP on FAP-expressing HT1080-FAP cells (UniProt Q12884 1-760, limits assumed).
T7 construct: whole, on cells
Put plainly: flow cytometry on FAP-expressing HT1080-FAP cells, PE anti-human Fc.

Experiment [11] has as its target T8, mouse CD3 on murine spleenocytes (mouse, UniProt P22646 22-189).
T8 construct: whole, on cells; also called murine CD3-expressing murine spleenocytes; moCD3
The experiment is described as follows: flow cytometry on murine spleenocytes (mouse CD3), PE anti-human Fc.

T8 sequence (P22646 22-189): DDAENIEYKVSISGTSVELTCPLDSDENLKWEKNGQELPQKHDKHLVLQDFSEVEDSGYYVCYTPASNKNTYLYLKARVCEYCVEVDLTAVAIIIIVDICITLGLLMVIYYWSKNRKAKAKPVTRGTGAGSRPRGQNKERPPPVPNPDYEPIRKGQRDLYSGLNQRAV

B1: tetravalent and bispecific eIg-Fab molecule targeting HER3 and EGFR (bispecific antibody)
light 1: QAGLTQPPAVSVAPGQTASITCGRDNIGSRSVHWYQQKPGQAPVLVVYDDSDRPAGIPERFSGSNYENTATLTISRVEAGDEADYYCQVWGITSDHVVFGGGTKLTVLGTDFTPPTVKILQSSSDGGGHFPPTIQLLCLVSGYTPGTIQITWLEDGQVMDVDLSTASTTQEGELASTQSELTLSQKHWLSDRTYTCQVTYQGHTFEDSTKKCADSN
light 2: DIQLTQSPSFLSASVGDRVTITCRASQSIGTNIHWYQQKPGKAPKLLIKYASESISGVPSRFSGSGSGTEFTLTISSLQPEDFATYYCQQNNNWPTTFGAGTKLEIKRTVAAPSVFIFPPSDEQLKSGTASVVCLLNNFYPREAKVQWKVDNALQSGNSQESVTEQDSKDSTYSLSSTLTLSKADYEKHKVYACEVTHQGLSSPVTKSFNRGEC
heavy: not shown
notes: Homodimerizing Fc; also called eIg-Fab EGFRxHER3
Regarding B1, the binding result in [1] is “no binding (tested: 50 nM)”. Also, the EC50 (as a rule, the concentration that produces a half-maximal response) came to 3.3 nM in [2] and 0.23 nM with EGFR-Fc.

B2: bispecific, trivalent eIg-Fab3 targeting HER3 and CD3 (bispecific antibody)
light 1: QAGLTQPPAVSVAPGQTASITCGRDNIGSRSVHWYQQKPGQAPVLVVYDDSDRPAGIPERFSGSNYENTATLTISRVEAGDEADYYCQVWGITSDHVVFGGGTKLTVLGQPKAAPSVTLFPPSSEELQANKATLVCLISDFYPGAVTVAWKADSSPVKAGVETTTPSKQSNNKYAASSYLSLTPEQWKSHRSYSCQVTHEGSTVEKTVAPTECS
light 2: not shown
heavy 1: QVQLVQSGAEVKKPGSSVKVSCKASGGTFSGYTMNWVRQAPGQGLEWMGLINPYKGVSTYNGKFKDRVTITADKSTSTAYMELSSLRSEDTAVYYCARSGYYGDSDWYFDVWGQGTLVTVSSDFTPPTVKILQSSCDGGGHFPPTIQLLCLVSGYTPGTINITWLEDGQVMDVDLSTASTTQEGELASTQSELTLSQKHWLSDRTYTCQVTYQGHTFEDSTKKSADSNGGSGGGGSGGQVQLQQSGPGLVKPSQTLSLTCAISGDSVSSNRAAWNWIRQSPSRGLEWLGRTYYRSKWYNDYAQSLKSRITINPDTPKNQFSLQLNSVTPEDTAVYYCARDGQLGLDALDIWGQGTMVTVSSASTKGPSVFPLAPSSKSTSGGTAALGCLVKDYFPEPVTVSWNSGALTSGVHTFPAVLQSSGLYSLSSVVTVPSSSLGTQTYICNVNHKPSNTKVDKKVEPKSCGTDKTHTCPPCPAPPVAGPSVFLFPPKPKDTLMISRTPEVTCVVVDVSHEDPEVKFNWYVDGVEVHNAKTKPREEQYNSTYRVVSVLTVLHQDWLNGKEYKCKVSNKGLPSSIEKTISKAKGQPREPQVYTLPPCRDELTKNQVSLWCLVKGFYPSDIAVEWESNGQPENNYKTTPPVLDSDGSFFLYSKLTVDKSRWQQGNVFSCSVMHEALHNHYTQKSLSLSPGK
heavy 2: QVQLQQSGPGLVKPSQTLSLTCAISGDSVSSNRAAWNWIRQSPSRGLEWLGRTYYRSKWYNDYAQSLKSRITINPDTPKNQFSLQLNSVTPEDTAVYYCARDGQLGLDALDIWGQGTMVTVSSASTKGPSVFPLAPSSKSTSGGTAALGCLVKDYFPEPVTVSWNSGALTSGVHTFPAVLQSSGLYSLSSVVTVPSSSLGTQTYICNVNHKPSNTKVDKKVEPKSCGTDKTHTCPPCPAPPVAGPSVFLFPPKPKDTLMISRTPEVTCVVVDVSHEDPEVKFNWYVDGVEVHNAKTKPREEQYNSTYRVVSVLTVLHQDWLNGKEYKCKVSNKGLPSSIEKTISKAKGQPREPQVCTLPPSRDELTKNQVSLSCAVKGFYPSDIAVEWESNGQPENNYKTTPPVLDSDGSFFLVSKLTVDKSRWQQGNVFSCSVMHEALHNHYTQKSLSLSPGK
With B2, in experiment [3], the “potency in cell killing relative to eIg-Fab4” value was around 4 fold. Besides, the “EC50 value in cell killing (PBMC-mediated cytotoxicity on BT-474 cells, crystal violet)” value in experiment [4] was 0.5 nM. In addition, the “EC50 value in cell killing (PBMC-mediated cytotoxicity on LIM1215 cells, crystal violet)” value in [4] stood at 0.4 nM. In addition, the EC50 was 1.1 nM in experiment [5], 0.2 nM in [6] and 0.4 nM in [7].

B3: bivalent and bispecific eIg molecule targeting HER3 and FAP (bispecific antibody)
light 1: B2 light 1
heavy 1: not shown
light 2: DIQMTQSPSSLSASVGDRVTITCRASKSVSTSAYSYMHWYQQKPGKAPKLLIYLASNLESGVPSRFSGSGSGTDFTLTISSLQPEDFATYYCQHSRELPYTFGQGTKLEIKRDFTPPTVKILQSSSDGGGHFPPTIQLLCLVSGYTPGTIQITWLEDGQVMDVDLSTASTTQEGELASTQSELTLSQKHWLSDRTYTCQVTYQGHTFEDSTKKCADSN
heavy 2: not shown
notes: Four different polypeptide chains; one site for HER3, one for FAP; also called eIg antibody targeting HER3 and FAP
Take B3: the EC50 in experiment [8] was determined as 7.6 nM; in [9], 3.4 nM.

B4: bivalent and bispecific eIg molecule targeting FAP and mouse CD3, molecule I (bispecific antibody)
light 1: DIQMTQSPSSLSASVGDRVTITCRASKSVSTSAYSYMHWYQQKPGKAPKLLIYLASNLESGVPSRFSGSGSGTDFTLTISSLQPEDFATYYCQHSRELPYTFGQGTKLEIKRRTVAAPSVFIFPPSDEQLKSGTASVVCLLNNFYPREAKVQWKVDNALQSGNSQESVTEQDSKDSTYSLSSTLTLSKADYEKHKVYACEVTHQGLSSPVTKSFNRGEC
heavy 1: QVQLVQSGAEVKKPGASVKVSCKASGYTFTENIIHWVRQAPGQGLEWMGWFHPGSGSIKYNEKFKDRVTMTADTSTSTVYMELSSLRSEDTAVYYCARHGGTGRGAMDYWGQGTLVTVSSASTKGPSVFPLAPSSKSTSGGTAALGCLVKDYFPEPVTVSWNSGALTSGVHTFPAVLQSSGLYSLSSVVTVPSSSLGTQTYICNVNHKPSNTKVDKKVEPKSCGTDKTHTCPPCPAPPVAGPSVFLFPPKPKDTLMISRTPEVTCVVVDVSHEDPEVKFNWYVDGVEVHNAKTKPREEQYNSTYRVVSVLTVLHQDWLNGKEYKCKVSNKGLPSSIEKTISKAKGQPREPQVCTLPPSRDELTKNQVSLSCAVKGFYPSDIAVEWESNGQPENNYKTTPPVLDSDGSFFLVSKLTVDKSRWQQGNVFSCSVMHEALHNHYTQKSLSLSPGK
light 2: EVQLVESGGGLVQPGKSLKLSCEASGFTFSGYGMHWVRQAPGRGLESVAYITSSSINIKYADAVKGRFTVSRDNAKNLLFLQMNILKSEDTAMYYCARFDWDKNYWGQGTMVTVSSDFTPPTVKILQSSSDGGGHFPPTIQLLCLVSGYTPGTIQITWLEDGQVMDVDLSTASTTQEGELASTQSELTLSQKHWLSDRTYTCQVTYQGHTFEDSTKKCADSN
heavy 2: DIQMTQSPSSLPASLGDRVTINCQASQDISNYLNWYQQKPGKAPKLLIYYTNKLADGVPSRFSGSGSGRDSSFTISSLESEDIGSYYCQQYYNYPWTFGPGTKLEIKDFTPPTVKILQSSCDGGGHFPPTIQLLCLVSGYTPGTINITWLEDGQVMDVDLSTASTTQEGELASTQSELTLSQKHWLSDRTYTCQVTYQGHTFEDSTKKSADSNGTDKTHTCPPCPAPPVAGPSVFLFPPKPKDTLMISRTPEVTCVVVDVSHEDPEVKFNWYVDGVEVHNAKTKPREEQYNSTYRVVSVLTVLHQDWLNGKEYKCKVSNKGLPSSIEKTISKAKGQPREPQVYTLPPCRDELTKNQVSLWCLVKGFYPSDIAVEWESNGQPENNYKTTPPVLDSDGSFFLYSKLTVDKSRWQQGNVFSCSVMHEALHNHYTQKSLSLSPGK
notes: In molecule I the 2C11 VH sits on the 'light chain' and the VL on the Fc-bearing chain; also called eIg FAP × moCD3 I
As to B4, the EC50 in experiment [10] was found to be 2.9 nM; in experiment [11], 7.3 nM.

B5: bivalent and bispecific eIg molecule targeting FAP and mouse CD3, molecule II (bispecific antibody)
light 1: B4 light 1
heavy 1: B4 heavy 1
light 2: DIQMTQSPSSLPASLGDRVTINCQASQDISNYLNWYQQKPGKAPKLLIYYTNKLADGVPSRFSGSGSGRDSSFTISSLESEDIGSYYCQQYYNYPWTFGPGTKLEIKDFTPPTVKILQSSSDGGGHFPPTIQLLCLVSGYTPGTIQITWLEDGQVMDVDLSTASTTQEGELASTQSELTLSQKHWLSDRTYTCQVTYQGHTFEDSTKKCADSN
heavy 2: EVQLVESGGGLVQPGKSLKLSCEASGFTFSGYGMHWVRQAPGRGLESVAYITSSSINIKYADAVKGRFTVSRDNAKNLLFLQMNILKSEDTAMYYCARFDWDKNYWGQGTMVTVSSDFTPPTVKILQSSCDGGGHFPPTIQLLCLVSGYTPGTINITWLEDGQVMDVDLSTASTTQEGELASTQSELTLSQKHWLSDRTYTCQVTYQGHTFEDSTKKSADSNGTDKTHTCPPCPAPPVAGPSVFLFPPKPKDTLMISRTPEVTCVVVDVSHEDPEVKFNWYVDGVEVHNAKTKPREEQYNSTYRVVSVLTVLHQDWLNGKEYKCKVSNKGLPSSIEKTISKAKGQPREPQVYTLPPCRDELTKNQVSLWCLVKGFYPSDIAVEWESNGQPENNYKTTPPVLDSDGSFFLYSKLTVDKSRWQQGNVFSCSVMHEALHNHYTQKSLSLSPGK
notes: also called eIg FAP × moCD3 II; second molecule
As for B5, the EC50 amounted to 2.7 nM in [10] and 24.2 nM in experiment [11].
